How the values were obtained:
[1] = target: Halo-FtsZ (FtsZ fused with HaloTag) (Caulobacter crescentus); assay: single molecule tracking in live cells
[2] = target: Halo-FtsZ^D216A (Caulobacter crescentus); assay: single molecule tracking in live cells

Substance | monomer lifetime [1] | monomer lifetime [2]
Halo-FtsZ (FtsZ fused with HaloTag) (natural protein) | 12.2 s | 
Halo-FtsZ^D216A (natural protein) |  | 16.2 s

From doi:10.1101/2023.09.08.556907
